Measured values as given in patent publication US12630600B2 (MEDIMMUNE LIMITED, priority 2022, dated 2026).
Starred links: 1 amine or outer side, 2 acyl side, 3 side chain; linkers in the order of their positions; H or OH if unused. Non-standard residues stand in square brackets, D forms with d. Groups on a side chain read outwards from the residue. No end group written: not given here. *: point of attachment. C20 diacid = O=C(O)CCCCCCCCCCCCCCCCCCC(=O)*; C18 diacid = O=C(O)CCCCCCCCCCCCCCCCC(=O)*; γGlu = O=C(O)[C@H](CCC(=O)[*:2])N[*:1]; αMeF = C[C@](N)(Cc1ccccc1)C(=O)O; AEEA = NCCOCCOCC(=O)O; Aib = CC(C)(N)C(=O)O

B1: Peptide 476 (peptide)
peptide: H[Aib]QGTFTSDVSK[αMeF]LDTK([AEEA-AEEA-γGlu-C18 diacid])RAQDFVRWLLA[Aib]G-NH2
modifications: N-terminus assumed
SMILES: CC(C)C[C@H](NC(=O)[C@H](CC(C)C)NC(=O)[C@H](Cc1c[nH]c2ccccc12)NC(=O)[C@H](CCCNC(=N)N)NC(=O)[C@@H](NC(=O)[C@H](Cc1ccccc1)NC(=O)[C@H](CC(=O)O)NC(=O)[C@H](CCC(N)=O)NC(=O)[C@H](C)NC(=O)[C@H](CCCNC(=N)N)NC(=O)[C@H](CCCCNC(=O)COCCOCCNC(=O)COCCOCCNC(=O)CC[C@H](NC(=O)CCCCCCCCCCCCCCCCC(=O)O)C(=O)O)NC(=O)[C@@H](NC(=O)[C@H](CC(=O)O)NC(=O)[C@H](CC(C)C)NC(=O)[C@](C)(Cc1ccccc1)NC(=O)[C@H](CCCCN)NC(=O)[C@H](CO)NC(=O)[C@@H](NC(=O)[C@H](CC(=O)O)NC(=O)[C@H](CO)NC(=O)[C@@H](NC(=O)[C@H](Cc1ccccc1)NC(=O)[C@@H](NC(=O)CNC(=O)[C@H](CCC(N)=O)NC(=O)C(C)(C)NC(=O)[C@@H](N)Cc1c[nH]cn1)[C@@H](C)O)[C@@H](C)O)C(C)C)[C@@H](C)O)C(C)C)C(=O)N[C@@H](C)C(=O)NC(C)(C)C(=O)NCC(N)=O
B2: Peptide 479 (peptide)
peptide: H[Aib]QGTFTSDVSK[αMeF]LDTK([AEEA-AEEA-γGlu-C20 diacid])RAQDFVRWLLE[Aib]K-NH2
modifications: N-terminus assumed
SMILES: CC(C)C[C@H](NC(=O)[C@H](Cc1c[nH]c2ccccc12)NC(=O)[C@H](CCCNC(=N)N)NC(=O)[C@@H](NC(=O)[C@H](Cc1ccccc1)NC(=O)[C@H](CC(=O)O)NC(=O)[C@H](CCC(N)=O)NC(=O)[C@H](C)NC(=O)[C@H](CCCNC(=N)N)NC(=O)[C@H](CCCCNC(=O)COCCOCCNC(=O)COCCOCCNC(=O)CC[C@H](NC(=O)CCCCCCCCCCCCCCCCCCC(=O)O)C(=O)O)NC(=O)[C@@H](NC(=O)[C@H](CC(=O)O)NC(=O)[C@H](CC(C)C)NC(=O)[C@](C)(Cc1ccccc1)NC(=O)[C@H](CCCCN)NC(=O)[C@H](CO)NC(=O)[C@@H](NC(=O)[C@H](CC(=O)O)NC(=O)[C@H](CO)NC(=O)[C@@H](NC(=O)[C@H](Cc1ccccc1)NC(=O)[C@@H](NC(=O)CNC(=O)[C@H](CCC(N)=O)NC(=O)C(C)(C)NC(=O)[C@@H](N)Cc1c[nH]cn1)[C@@H](C)O)[C@@H](C)O)C(C)C)[C@@H](C)O)C(C)C)C(=O)N[C@@H](CC(C)C)C(=O)N[C@@H](CCC(=O)O)C(=O)NC(C)(C)C(=O)N[C@@H](CCCCN)C(N)=O
B3: Peptide 475 (peptide)
peptide: H[Aib]QGTFTSDVSK[αMeF]LDTK([AEEA-AEEA-γGlu-C20 diacid])RARDFVQWLLA[Aib]G-NH2
modifications: N-terminus assumed
SMILES: CC(C)C[C@H](NC(=O)[C@H](CC(C)C)NC(=O)[C@H](Cc1c[nH]c2ccccc12)NC(=O)[C@H](CCC(N)=O)NC(=O)[C@@H](NC(=O)[C@H](Cc1ccccc1)NC(=O)[C@H](CC(=O)O)NC(=O)[C@H](CCCNC(=N)N)NC(=O)[C@H](C)NC(=O)[C@H](CCCNC(=N)N)NC(=O)[C@H](CCCCNC(=O)COCCOCCNC(=O)COCCOCCNC(=O)CC[C@H](NC(=O)CCCCCCCCCCCCCCCCCCC(=O)O)C(=O)O)NC(=O)[C@@H](NC(=O)[C@H](CC(=O)O)NC(=O)[C@H](CC(C)C)NC(=O)[C@](C)(Cc1ccccc1)NC(=O)[C@H](CCCCN)NC(=O)[C@H](CO)NC(=O)[C@@H](NC(=O)[C@H](CC(=O)O)NC(=O)[C@H](CO)NC(=O)[C@@H](NC(=O)[C@H](Cc1ccccc1)NC(=O)[C@@H](NC(=O)CNC(=O)[C@H](CCC(N)=O)NC(=O)C(C)(C)NC(=O)[C@@H](N)Cc1c[nH]cn1)[C@@H](C)O)[C@@H](C)O)C(C)C)[C@@H](C)O)C(C)C)C(=O)N[C@@H](C)C(=O)NC(C)(C)C(=O)NCC(N)=O
B4: Peptide 474 (peptide)
peptide: H[Aib]QGTFTSDVSK[αMeF]LDTK([AEEA-AEEA-γGlu-C18 diacid])RARDFVQWLLA[Aib]G-NH2
modifications: N-terminus assumed
SMILES: CC(C)C[C@H](NC(=O)[C@H](CC(C)C)NC(=O)[C@H](Cc1c[nH]c2ccccc12)NC(=O)[C@H](CCC(N)=O)NC(=O)[C@@H](NC(=O)[C@H](Cc1ccccc1)NC(=O)[C@H](CC(=O)O)NC(=O)[C@H](CCCNC(=N)N)NC(=O)[C@H](C)NC(=O)[C@H](CCCNC(=N)N)NC(=O)[C@H](CCCCNC(=O)COCCOCCNC(=O)COCCOCCNC(=O)CC[C@H](NC(=O)CCCCCCCCCCCCCCCCC(=O)O)C(=O)O)NC(=O)[C@@H](NC(=O)[C@H](CC(=O)O)NC(=O)[C@H](CC(C)C)NC(=O)[C@](C)(Cc1ccccc1)NC(=O)[C@H](CCCCN)NC(=O)[C@H](CO)NC(=O)[C@@H](NC(=O)[C@H](CC(=O)O)NC(=O)[C@H](CO)NC(=O)[C@@H](NC(=O)[C@H](Cc1ccccc1)NC(=O)[C@@H](NC(=O)CNC(=O)[C@H](CCC(N)=O)NC(=O)C(C)(C)NC(=O)[C@@H](N)Cc1c[nH]cn1)[C@@H](C)O)[C@@H](C)O)C(C)C)[C@@H](C)O)C(C)C)C(=O)N[C@@H](C)C(=O)NC(C)(C)C(=O)NCC(N)=O
B5: Peptide 477 (peptide)
peptide: H[Aib]QGTFTSDVSK[αMeF]LDTK([AEEA-AEEA-γGlu-C20 diacid])RAQDFVRWLLA[Aib]G-NH2
modifications: N-terminus assumed
SMILES: CC(C)C[C@H](NC(=O)[C@H](CC(C)C)NC(=O)[C@H](Cc1c[nH]c2ccccc12)NC(=O)[C@H](CCCNC(=N)N)NC(=O)[C@@H](NC(=O)[C@H](Cc1ccccc1)NC(=O)[C@H](CC(=O)O)NC(=O)[C@H](CCC(N)=O)NC(=O)[C@H](C)NC(=O)[C@H](CCCNC(=N)N)NC(=O)[C@H](CCCCNC(=O)COCCOCCNC(=O)COCCOCCNC(=O)CC[C@H](NC(=O)CCCCCCCCCCCCCCCCCCC(=O)O)C(=O)O)NC(=O)[C@@H](NC(=O)[C@H](CC(=O)O)NC(=O)[C@H](CC(C)C)NC(=O)[C@](C)(Cc1ccccc1)NC(=O)[C@H](CCCCN)NC(=O)[C@H](CO)NC(=O)[C@@H](NC(=O)[C@H](CC(=O)O)NC(=O)[C@H](CO)NC(=O)[C@@H](NC(=O)[C@H](Cc1ccccc1)NC(=O)[C@@H](NC(=O)CNC(=O)[C@H](CCC(N)=O)NC(=O)C(C)(C)NC(=O)[C@@H](N)Cc1c[nH]cn1)[C@@H](C)O)[C@@H](C)O)C(C)C)[C@@H](C)O)C(C)C)C(=O)N[C@@H](C)C(=O)NC(C)(C)C(=O)NCC(N)=O
B6: Peptide 478 (peptide)
peptide: H[Aib]QGTFTSDVSK[αMeF]LDTK([AEEA-AEEA-γGlu-C18 diacid])RAQDFVRWLLE[Aib]K-NH2
modifications: N-terminus assumed
SMILES: CC(C)C[C@H](NC(=O)[C@H](Cc1c[nH]c2ccccc12)NC(=O)[C@H](CCCNC(=N)N)NC(=O)[C@@H](NC(=O)[C@H](Cc1ccccc1)NC(=O)[C@H](CC(=O)O)NC(=O)[C@H](CCC(N)=O)NC(=O)[C@H](C)NC(=O)[C@H](CCCNC(=N)N)NC(=O)[C@H](CCCCNC(=O)COCCOCCNC(=O)COCCOCCNC(=O)CC[C@H](NC(=O)CCCCCCCCCCCCCCCCC(=O)O)C(=O)O)NC(=O)[C@@H](NC(=O)[C@H](CC(=O)O)NC(=O)[C@H](CC(C)C)NC(=O)[C@](C)(Cc1ccccc1)NC(=O)[C@H](CCCCN)NC(=O)[C@H](CO)NC(=O)[C@@H](NC(=O)[C@H](CC(=O)O)NC(=O)[C@H](CO)NC(=O)[C@@H](NC(=O)[C@H](Cc1ccccc1)NC(=O)[C@@H](NC(=O)CNC(=O)[C@H](CCC(N)=O)NC(=O)C(C)(C)NC(=O)[C@@H](N)Cc1c[nH]cn1)[C@@H](C)O)[C@@H](C)O)C(C)C)[C@@H](C)O)C(C)C)C(=O)N[C@@H](CC(C)C)C(=O)N[C@@H](CCC(=O)O)C(=O)NC(C)(C)C(=O)N[C@@H](CCCCN)C(N)=O
B7: Peptide 481 (peptide)
peptide: H[Aib]QGTFTSDVSK[αMeF]LDTK([AEEA-AEEA-γGlu-C20 diacid])RARDFVQWLLE[Aib]K-NH2
modifications: N-terminus assumed
SMILES: CC(C)C[C@H](NC(=O)[C@H](Cc1c[nH]c2ccccc12)NC(=O)[C@H](CCC(N)=O)NC(=O)[C@@H](NC(=O)[C@H](Cc1ccccc1)NC(=O)[C@H](CC(=O)O)NC(=O)[C@H](CCCNC(=N)N)NC(=O)[C@H](C)NC(=O)[C@H](CCCNC(=N)N)NC(=O)[C@H](CCCCNC(=O)COCCOCCNC(=O)COCCOCCNC(=O)CC[C@H](NC(=O)CCCCCCCCCCCCCCCCCCC(=O)O)C(=O)O)NC(=O)[C@@H](NC(=O)[C@H](CC(=O)O)NC(=O)[C@H](CC(C)C)NC(=O)[C@](C)(Cc1ccccc1)NC(=O)[C@H](CCCCN)NC(=O)[C@H](CO)NC(=O)[C@@H](NC(=O)[C@H](CC(=O)O)NC(=O)[C@H](CO)NC(=O)[C@@H](NC(=O)[C@H](Cc1ccccc1)NC(=O)[C@@H](NC(=O)CNC(=O)[C@H](CCC(N)=O)NC(=O)C(C)(C)NC(=O)[C@@H](N)Cc1c[nH]cn1)[C@@H](C)O)[C@@H](C)O)C(C)C)[C@@H](C)O)C(C)C)C(=O)N[C@@H](CC(C)C)C(=O)N[C@@H](CCC(=O)O)C(=O)NC(C)(C)C(=O)N[C@@H](CCCCN)C(N)=O

Target: human GLP-1 receptor (human, UniProt P43220)
Experiment: cell-based or functional assay

Binder | cAMP production EC50
B1 | 0.0573 nM
B2 | 0.0342 nM
B3 | 0.00675 nM
B4 | 0.00804 nM
B5 | 0.0541 nM
B6 | 0.00918 nM
B7 | 0.0522 nM

Target: human glucagon receptor (human, UniProt P47871)
Experiment: cell-based or functional assay

Binder | cAMP production EC50
B1 | 0.104 nM
B2 | 0.207 nM
B3 | 0.0615 nM
B4 | 0.0569 nM
B5 | 0.117 nM
B6 | 0.19 nM
B7 | 0.35 nM
